{"source": "patent US6669963B1", "about": "“Stable particle in liquid formulations” (Elan Drug Delivery Limited, priority 1997, dated 2003)", "key": {"[1]": {"experiment": "Storage stability of EPO preparations, residual EPO by Quantikine IVD EPO-specific immunoassay", "format": "physicochemical", "conditions": "within one day", "description": "Freeze dried EPO was re-hydrated and diluted 100 fold with a buffer of the following composition:\nand dried in a spray dryer as above. The powder was weighed into 125 mg aliquots and subjected to secondary drying at a temperature ramping from 40° C. to 80° C. at a rate of 15 degrees per hour under vacuum and then either sealed in a serum vial or re-suspended in 0.5 ml of mineral oil BP and sealed. They were then stored at 37° C. or 55° C. for up to 15 days. At the end of the storage period, residual EPO was extracted into phosphate buffered saline containing 0.01% BSA as above and the amount remaining in the extract was measured using a Quantikine IVD EPO-specific immunoassay (RD Systems Inc)."}, "phage lambda DNA": {"system": "phage lambda DNA", "experiment": "Storage stability of EcoR1 preparations, residual titre by complete cutting of DNA", "format": "physicochemical", "description": "Restriction enzymes are customarily stored in freezers at −20° C. in buffers containing 50% glycerol to prevent ice formation. Even under these conditions some of them have a limited storage life and need to be replaced at intervals. Several enzymes were dried using the technique of the present invention with similar results. The data with one enzyme, EcoR1, is illustrated. The enzyme solution was diluted 100 fold in SC buffer (Colaco C. A. L. S., Sen S., Thangavelu M., Pinder S. and Roser B. “Extraordinary stability of enzymes dried in trehalose: Simplified molecular biology.” Biotechnol. 10 1007-1011 (1992)). The dried enzyme was produced in the spray dryer as above, sealed in vials with or without oil and its stability was compared with fresh liquid enzyme diluted in cutting buffer at three storage temperatures 4° C., 37° C. and 55° C. To determine residual activity after storage, the enzyme was recovered into the acueous phase as described earlier, diluted with SC buffer in a 2-fold dilution series and used to cut 0.5 μg of phage lambda DNA (Life Technologies Inc). The completeness of cutting at various dilutions was assessed by separating the DNA fragments by agarose gel electrophoresis in which the bands were visualised under UV light by ethidium bromide staining."}}, "data": [{"substance": "fresh EPO: Recombinant Human Erythropoietin, not dried in trehalose", "values": [{"measurement": "loss of activity", "setting": "[1]; 37° C.", "result": 88, "unit": "%"}, {"measurement": "loss of activity", "setting": "[1]; 55° C.", "result": "> 95", "unit": "%"}]}, {"substance": "fresh enzyme: Restriction Endonuclease EcoR1, fresh liquid enzyme diluted in cutting buffer", "values": [{"measurement": "activity on storage", "setting": "phage lambda DNA; 4° C., over 28 days", "result": "stable"}, {"measurement": "activity on storage", "setting": "phage lambda DNA; 37° C., by 28 days", "result": "lost essentially all activity"}, {"measurement": "time to completely inactive", "setting": "phage lambda DNA; 55° C.", "result": "≤ 7", "unit": "days"}]}]}
